In article PMC11326118, “Oxamic transcarbamylase of Escherichia coli is encoded by the three genes allFGH (formerly fdrA, ylbE, and ylbF)” (Applied and Environmental Microbiology, 2024):

Tests used:
[1] = substrate: NC(=O)OP(=O)(O)O; assay: oxamate consumption by HPLC, reverse reaction; type: biochemical, Escherichia coli; details: oxamate fixed at 40 mM, 10 mM MgCl2, 100 mM Tris pH 9.0, 30 °C, 100 nM enzyme
Source text: (§1) oxamate consumption by HPLC, reverse reaction on AllFGH (AllF-AllG-AllH; FdrA-YlbE-YlbF), oxamic transcarbamylase (OXTCase)

[2] = substrate: NC(=O)C(=O)O; assay: oxamate consumption by HPLC, reverse reaction; type: biochemical, Escherichia coli; details: co-substrate carbamoyl phosphate, 10 mM MgCl2, 100 mM Tris pH 9.0, 30 °C, 100 nM enzyme
Source text: as §1

B1: AllFGH (AllF-AllG-AllH; FdrA-YlbE-YlbF), oxamic transcarbamylase (OXTCase) (Escherichia coli K-12) (protein)
chain 1: MIHAFIKKGCFQDSVSLMIISRKLSESENVDDVSVMMGTPANKALLDTTGFWHDDFNNATPNDICVAIRSEAADAGIAQAIMQQLEEALKQLAQGSGSSQALTQVRRWDSACQKLPDANLALISVAGEYAAELANQALDRNLNVMMFSDNVTLEDEIQLKTRAREKGLLVMGPDCGTSMIAGTPLAFANVMPEGNIGVIGASGTGIQELCSQIALAGEGITHAIGLGGRDLSREVGGISALTALEMLSADEKSEVLAFVSKPPAEAVRLKIVNAMKATGKPTVALFLGYTPAVARDENVWFASSLDEAARLACLLSRVTARRNAIAPVSSGFICGLYTGGTLAAEAAGLLAGHLGVEADDTHQHGMMLDADSHQIIDLGDDFYTVGRPHPMIDPTLRNQLIADLGAKPQVRVLLLDVVIGFGATADPAASLVSAWQKACAARLDNQPLYAIATVTGTERDPQCRSQQIATLEDAGIAVVSSLPEATLLAAALIHPLSPAAQQHTPSLLENVAVINIGLRSFALELQSASKPVVHYQWSPVAGGNKKLARLLERLQ
chain 2: MFTSVAQANAAVIEQIRRARPHWLDVQPASSLISELNEGKTLLHAGPPMRWQEMTGPMKGACVGACLFEGWAKDEAQALAILEQGEVNFIPCHHVNAVGPMGGITSASMPMLVVENVTDGNRAYCNLNEGIGKVMRFGAYGEDVLTRHRWMRDVLMPVLSAALGRMERGIDLTAMMAQGITMGDEFHQRNIASSALLMRALAPQIARLDHDKQHIAEVMDFLSVTDQFFLNLAMAYCKAAMDAGAMIRAGSIVTAMTRNGNMFGIRVSGLGERWFTAPVNTPQGLFFTGFSQEQANPDMGDSAITETFGIGGAAMIAAPGVTRFVGAGGMEAARAVSEEMAEIYLERNMQLQIPSWDFQGACLGLDIRRVVETGITPLINTGIAHKEAGIGQIGAGTVRAPLACFEQALEALAESMGIG
chain 3: MTIIHPLLASSSAPNYRQSWRLAGVWRRAINLMTESGELLTLHRQGSGFGPGGWVLRRAQFDALCGGLCGNERPQVVAQGIRLGRFTVKQPQRYCLLRITPPAHPQPLAAAWMQRAEETGLFGPLALAASDPLPAELRQFRHCFQAALNGVKTDWRHWLGKGPGLTPSHDDTLSGMLLAAWYYGALDARSGRPFFACSDNLQLVTTAVSVSYLRYAAQGYFASPLLHFVHALSCPKRTAVAIDSLLALGHTSGADTLLGFWLGQQLLQGKP
notes: full-length subunits co-expressed from pET30b (pMB191) in E. coli BL21(DE3); 6xHis at N-terminus of AllF and C-terminus of AllH, tags kept; 62, 46, 31 kDa; 555, 419, 271 aa
Protein B1 has a Km [1] of 1.3 mM, a kcat [1] of 35.5 s⁻¹ and a kcat/Km [1] of 27300 M⁻¹ s⁻¹. It also gave a Km [2] of 36.9 mM, a kcat [2] of 58.5 s⁻¹ and a kcat/Km [2] of 1600 M⁻¹ s⁻¹.
